From patent publication US20170313769A1 (Pfizer, published 2017)
Residue numbers refer to the chain shown, from its start.

Key:
Human IFNγ = biological target: T1, Human IFNγ (human, UniProt P01579 24-166, limits assumed); test: plate ELISA, IFNγ coated at 5 µg/mL
T1 construct: also called IFNγ (type II)
T1 sequence (looked up): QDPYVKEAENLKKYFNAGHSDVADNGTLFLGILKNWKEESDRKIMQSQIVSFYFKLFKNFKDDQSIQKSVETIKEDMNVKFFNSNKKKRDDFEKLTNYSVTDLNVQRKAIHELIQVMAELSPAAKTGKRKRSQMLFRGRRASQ

CID1283 = biological target: T2, CID1283 (human (IFNβ with IFNα sequence inserted), UniProt P01574 22-187); test: cell-based or functional assay
T2 chain: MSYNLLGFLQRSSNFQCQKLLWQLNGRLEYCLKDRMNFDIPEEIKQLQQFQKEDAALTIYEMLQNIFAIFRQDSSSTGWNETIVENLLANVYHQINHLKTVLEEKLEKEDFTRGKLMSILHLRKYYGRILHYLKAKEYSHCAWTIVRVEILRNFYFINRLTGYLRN

CID1285 = biological target: T3, CID1285 (human (IFNβ with IFNα sequence inserted), UniProt P01574 22-187); test: cell-based or functional assay
T3 chain: T2 chain with I119S, R123K, K124R, A135E, E137K

CID1280 = biological target: T4, CID1280 (human (IFNβ with IFNα sequence inserted), UniProt P01574 22-187); test: cell-based or functional assay
T4 chain: T2 chain with E85D, N86K, A89T, I119S, R123K, K124R

[1] = biological target: T5, Human IFNβ (mature human interferon beta) (human, UniProt P01574 22-187); test: cell-based or functional assay
CID1276 = biological target: T6, CID1276 (human (IFNβ with IFNα sequence inserted), UniProt P01574 22-187); test: cell-based or functional assay
T6 chain: T2 chain with F15R, Q16R, Q18L, K19M, W22A, I119S, R123K, K124R

CID1281 = biological target: T7, CID1281 (human (IFNβ with IFNα sequence inserted), UniProt P01574 22-187); test: cell-based or functional assay
T7 chain: T2 chain with N90E, H93Q, H97D, K99E, T100A, I119S, R123K, K124R

CID1287 = biological target: T8, CID1287 (human (IFNβ with IFNα sequence inserted), UniProt P01574 22-187); test: cell-based or functional assay
T8 chain: T2 chain with I119S, R123K, K124R, V148A, Y155S, F156L, N158T

CID1277 = biological target: T9, CID1277 (human (IFNβ with IFNα sequence inserted), UniProt P01574 22-187); test: cell-based or functional assay
T9 chain: T2 chain with M36H, N37D, D39G, E42Q, I119S, R123K, K124R

CID1286 = biological target: T10, CID1286 (human (IFNβ with IFNα sequence inserted), UniProt P01574 22-187); test: cell-based or functional assay
T10 chain: T2 chain with I119S, R123K, K124R, H140P

[2] = biological target: T5, Human IFNβ (mature human interferon …); test: ELISA (summary value); human IFNβ
[3] = biological target: T5, Human IFNβ (mature human interferon …); test: cell-based or functional assay; remark: listed apart in the source
Rat IFNβ = biological target: T11, Rat IFNβ (rat, UniProt P70499 22-184); test: plate ELISA, rat IFNβ coated at 5 µg/mL
T11 sequence: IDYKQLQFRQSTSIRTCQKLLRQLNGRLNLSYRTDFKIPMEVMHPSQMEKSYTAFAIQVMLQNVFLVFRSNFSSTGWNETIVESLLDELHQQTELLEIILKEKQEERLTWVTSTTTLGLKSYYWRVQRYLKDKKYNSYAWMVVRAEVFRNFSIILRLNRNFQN

[4] = biological target: T5, Human IFNβ (mature human interferon …); test: SPR (affinity maturation); after affinity maturation (four light chain mutations)
Human IFNω = Human IFNω (human, UniProt P05000 24-195); test: plate ELISA, human IFNω coated at 5 µg/mL
Sequence of Human IFNω (P05000 24-195): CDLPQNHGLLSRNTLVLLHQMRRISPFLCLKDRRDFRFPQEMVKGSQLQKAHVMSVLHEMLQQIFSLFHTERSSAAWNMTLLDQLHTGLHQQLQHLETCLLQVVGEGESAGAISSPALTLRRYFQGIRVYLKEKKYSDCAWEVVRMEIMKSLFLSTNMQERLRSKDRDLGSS

[5] = biological target: T5, Human IFNβ (mature human interferon …); test: Octet (BLI) response rank; method not described

B1: CTI-AF1 (antibody, human IgG1, kappa, V domains shown)
VH: QVQLVQSGAEVKKPGSSVKVSCKASGYTFSRYWMHWVRQAPGQGLEWMGHIDPSDSYTYYNQKFKGRVTITADESTSTAYMELSSLRSEDTAVYYCARWDYGNLLFEYWGQGTLVTVSS
VL: DIQMTQSPSSLSASVGDRVTITCRTSQDIGNYLNWYQQKPGKAFKLLIYSTSRLHSGVPSRFSGSGSGTDFTLTISSLQPEDFATYYCQQGIILPITFGGGTKVEIKR
notes: Humanized IgG1; The C-terminal K of the heavy chain is printed as optional, '(K)'; also called anti-IFNβ antibody; humanized IgG1 antibody against interferon beta
- binding result (Human IFNγ): no binding
- IC50 (nM), neutralization of type I IFN-induced STAT1 phosphorylation (CID1283): 0.4 nM
- IC50 (nM), neutralization of type I IFN-induced STAT1 phosphorylation (CID1285): 0.4 nM
- IC50 (nM), neutralization of type I IFN-induced STAT1 phosphorylation (CID1280): 47.7 nM
- IC50 (nM), neutralization of type I IFN-induced STAT1 phosphorylation [1]: 0.3 nM
- IC50 (nM), neutralization of type I IFN-induced STAT1 phosphorylation (CID1276): 0.2 nM
- IC50 (nM), neutralization of type I IFN-induced STAT1 phosphorylation (CID1281): 3280 nM
- IC50 (nM), neutralization of type I IFN-induced STAT1 phosphorylation (CID1287): 0.3 nM
- IC50 (nM), neutralization of type I IFN-induced STAT1 phosphorylation (CID1277): 0.3 nM
- IC50 (nM), neutralization of type I IFN-induced STAT1 phosphorylation (CID1286): 0.4 nM
- EC50 [2]: 0.0153 nM
- IC50, IFNβ induced luciferase activity in HEK293 ISRE-Luc cells [3]: 0.0288 nM
- IC50, M×A (M×1) gene expression in human dermal fibroblasts stimulated with recombinant IFNβ [3]: 0.0294 nM
- IC50, inhibition of IFNβ induced STAT1 phosphorylation in U937 cells (phosflow) [3]: 0.0298 nM
- IC50, neutralization of IFNβ induced STAT1 phosphorylation [3]: 0.0077 nM
- binding result (Rat IFNβ): no binding
- Kd [4]: 0.029 nM
- binding result (Human IFNω): no binding
- Response rank (Octet) [5]: 1 rank
